{"source": "paper doi:10.1101/2025.07.16.665153", "molecular_target": "endogenous MpUVR8 of Marchantia polymorpha (Marchantia polymorpha (endogenous in Tak-1 gemmalings))", "experiment": "cross-linking", "data": [{"substance": "endogenous MpUVR8 of Marchantia polymorpha (natural protein)", "values": [{"measurement": "stoichiometry N", "value": 2}]}]}
